# Measurements: PMC5389554
# Where two headings read alike, the source gives them in different places.
# B1: AAATTAGT probe (il-12b, ccl5, cnbp) (dsDNA)
# DNA 1: AAATTAGT
# DNA 2: ACTAATTT
# B2: CTGAAAAA probe (il-6, il-1b, ccl9, cnbp) (dsDNA)
# DNA 1: CTGAAAAA
# DNA 2: TTTTTCAG
# B3: Mut.2 (dsDNA)
# DNA 1: AGTGGAGA
# DNA 2: TCTCCACT
# B4: AAATTAGA probe (il-6, ccl4) (dsDNA)
# DNA 1: AAATTAGA
# DNA 2: TCTAATTT
# B5: 26-nt-CTGAAAAA (dsDNA)
# DNA 1: GGAACTAGTCTGAAAAAGAAACTAAC
# DNA 2: GTTAGTTTCTTTTTCAGACTAGTTCC
# B6: 26-nt-AAATTAGT (dsDNA)
# DNA 1: TGTAAACAGAAATTAGTATCTCTGCC
# DNA 2: GGCAGAGATACTAATTTCTGTTTACA
# B7: Mut.6 (dsDNA)
# DNA 1: CTGGGGGA
# DNA 2: TCCCCCAG
# B8: Mut.5 (dsDNA)
# DNA 1: GGGAAAAA
# DNA 2: TTTTTCCC
# B9: AGTTGAGA probe (ccl4) (dsDNA)
# DNA 1: AGTTGAGA
# DNA 2: TCTCAACT
# B10: NF-κB probe (dsDNA)
# DNA 1: AATGTGGGATTTTCCCATGA
# DNA 2: TCATGGGAAAATCCCACATT
# B11: Mut.3 (dsDNA)
# DNA 1: AGTTGCCA
# DNA 2: TGGCAACT
# What was measured:
# Test in all cases: EMSA
# GST-CNBP (isoform 1, WT) [1] = target: T1, GST-CNBP (isoform 1, WT) (mouse, UniProt P53996 1-178)
# [2] = target: GST-CNBP Δ54-178 (CNBP-1-53) (mouse, UniProt P53996 1-53, del54-178)
# GST-CNBP (isoform 1, WT) [3] = target: T1, GST-CNBP (isoform 1, WT); remark: listed apart in the source
# GST-CNBP (isoform 1, WT) [4] = target: T1, GST-CNBP (isoform 1, WT); remark: listed apart in the source
# T1 sequence (P53996 whole entry, canonical isoform): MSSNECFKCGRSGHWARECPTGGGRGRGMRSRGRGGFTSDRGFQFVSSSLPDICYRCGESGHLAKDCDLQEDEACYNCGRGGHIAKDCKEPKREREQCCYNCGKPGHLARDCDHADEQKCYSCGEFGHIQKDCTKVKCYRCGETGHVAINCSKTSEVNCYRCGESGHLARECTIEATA
# Chain of GST-CNBP Δ54-178 (CNBP-1-53) (P53996 1-53, stated change not applied): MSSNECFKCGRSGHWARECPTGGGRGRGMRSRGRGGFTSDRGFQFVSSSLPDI
Binder,"binding result (GST-CNBP (isoform 1, WT) [1])",also measured
B1,binds,–
B2,binds,binding result [2]: binds
B3,–,"binding signal (GST-CNBP (isoform 1, WT) [3]): > 1 fold of AGTTGAGA"
B4,binds,–
B5,binds,–
B6,binds,–
GGAGGAGAGAGAGAGAGAGAGAGAGA (mixed) [G-rich 26-nt (strandedness in assay not stated; antisense S140 also listed)],binds,–
B7,no binding,–
B8,–,"binding signal (GST-CNBP (isoform 1, WT) [4]): > 1 fold of CTGAAAAA"
B9,binds,–
B10,no binding,–
B11,no binding,–
